How the values were obtained:
citrate synthase = assay: cell-based or functional assay
[1] = biological target: the molecule itself; assay: transmission electron microscopy; self-association into filaments

B1: Methanococcus jannaschii gamma-Prefoldin (γ-PFD) (other)
chain: MVNEVIDINEAVRAYIAQIEGLRAEIGRLDATIATLRQSLATLKSLKTLGEGKTVLVPVGSIAQVEMKVEKMDKVVVSVGQNISAELEYEEALKYIEDEIKKLLTFRLVLEQAIAELYAKIEDLIAEAQQTSEEEKAEEEENEEKAE
notes: Recombinant protein expressed in E. coli from the genomic M. jannaschii gene; It forms long filaments of identical subunits; also called γ prefoldin; Mj-γ-PFD
- reduction of citrate synthase aggregation at 45° C. (citrate synthase): 2 :1 monomer-to-monomer stoichiometric ratio
- stabilization of citrate synthase against aggregation at 45° C. (citrate synthase): 5 :1 monomer-to-monomer stoichiometric ratio
- binding result [1]: binds

— patent US20110045554A1 (University of California, published 2011)
